Laboratory results reported in the PETadex activity labels.

Substrate: BHET
Details: 120 h

Protein	plate clearing
unnamed (protein) MTGSTTTGGRPAPPSPPSQSSTTCTTSAVASMPILTPSRVTSAHSVSSCSARNDAGGTCTALTPVVLWAVSAVTTAMPYPPAAATDFRSAWIPAPPPGSDPATDRTLGTCSGDETVGSVDGMGDIPSSVRTASGSTGVISAPGGRTPCREDTVAPVRETVSHRTRPCASPARLPMPRHGVRAEPVGAVIRQRGRTMQHSSIRSRAARRVTAALASLTVAVGLGAASGSVAQAADNPYERGPAPSESSIEATRGHYAVSERNVSRFVSGFGGGTIYYPTTTSDGTFGAVVVSPGYTGTESSIDWLGPRLASQGFVVLTMATNTIYDQPDSRARQLQAALDYLTGSSPVADRIDDDRLALMGHSMGGGGTLRAVDDNPDIKAAIPMTPWHTKKNWSTVTTPTLVFAAENDSVARHETHAEPFYNSFSDDLPKAYLELDGASHFAPNFSNTTIAKYSISWLKRFVDDDSR	not clears the plate
unnamed (protein) MTVCKLRMFTAQKHPVTNKIFGGSSMSSRKQDLRLRQLLYCLLLSTALGGAVVHAQTAPATIAQEAFNNGFGIFTAAGSATANGQAVLAGTFGGTDGSITSSPISTQGFSNITVSFDRTTVGLDNGEAGVAEFSVAGGAFTAIESAQTASGRMSFALAASAANQAQLRLRFRVVASRANETYSVDNVLVQGVAAGAQPPPPDPQPTNNPFQRGPTPSAATLEAAQGPFAVATTTVPNPSGFGAGTIYFPTSTTEGPFAAVSIAPGFSERQANVNWWGPRLASNGFVVVVIDTNSTSDAPASRATQLVAALRQVVTLSGTSGSPVFNKVDGNRLGVMGHSLGGGGTLIAAQNNPTLKAAIPFAPFNNDTNFSSVVVPTLIIACENDNVAPVADHASPFYNSFAASLDKAFLEIAGGSHSCANSGNNNMPILGKYGVSWMKLFMDNDTRYSPFLCGAPHQADLSGTQISEYRESCPY	not clears the plate
unnamed (protein) MSSDKRLLFTLLHRTLLACALTFSAALPACGEEDPKEVTDSSSDDDDETPVDGDTTGDDDPEPMTMKDAGKSSVKDAGKPPPTPAVDAGSTAPKDKDSGTVGGIDAGPAKDAGTVVTPPTTAGDALVRGDAPTEKSASAKGPYAVKTYTSGYPDLPGYLDSTIHYPEGAQPPFAAVVIVPGFVSAQSSIQAWGPFFASHGIVTMTIGTNTPVDQPPMREAALLDALKTVKSENTREGSPLKDKLDLSRLAGMGWSMGGGGALLLGEHNPELKAVIALCPWNPGYSYAKIKMPTLFLAAQADTLAGGQSQGFYSSIPNSVPKILYEIAGADHWHNNDPANLQGAVGRYGLAWLKVFLEGDERYRDLLKVKGPSSSDWQSNVQ	not clears the plate
unnamed (protein) MTPTLCRPLAAVLTSAAFAALTAVSASALAQTPQEPTEASLNATAGPFSVATESVRAPRGFGGGTIYYPTAAGRYGVVAISPGFTATQSSIAWLGRRMASHGLVVITMNTNSTLDQPASRANQLMAALNHVVSASGAAVQSRADGTRRAVAGHSMGGGGALIAARDNATLRAALPLTPWNTTTDFSGVRVPTLIVGADGDGVASVTRHARPFYASLPNATAKAYGELNSASHFTPNSTNTPIGRYGVTWMKRFVDADTRYSPFLCGAAHLAYATPAVFDRYQNNCPY	not clears the plate
unnamed (protein) MIRFKTGALTNTISLCLVVALGCGGGETPETSGPPPATQTNPTAQAGATATKPTGTAGAAAPTNTGRPMMTTPPTTTTPTMTTPATAGSAAPAAGSGGTPAATGAGGAPAAEAGSGAAGSAATAGSGAEDEAAAGKGGTEATGDKNHWIRGDDPPADLSGARPGPYKVERYTDGYRNGPAYADSTINYPVDAEPPFALVVVVPGFVSPQSSIASWGPFLASHGIVTMTIGTNLPTDLPETRKDALLDAMQSLKEENTREGSPLKGKLDTSYTATMGWSMGGGGTLLVANENPELKATISLCGWNPGYPYSKIKAPALMFASLGDPLAGGQSQGFYRSIPDETPKMLIEVGAGDHFVANNPASTSGVIGRYGLAWLKVYLEGDERYRKFLLEKPAVP	not clears the plate
unnamed (protein) MKIDSIIKFLCTALLVTFSLGVYAGGGGGGDEPSNDGQLPAPDTCTSNCGYANGANPTLSSLQASQGQYSVGTVNVSSSVNGFGGGTIYYPTNLSGELAAIAIAPGFTNTQSAVQWWGPVLASRGFVVVTINTNGRFDFPSSRSRQLDSALNYLIYLGEQSSGAISGKVDKNRLATMGFSMGGGGALESASRNRLSATVPLAPWYSGSNPFNQINVPSMIMACENDGTAGVNTHASPFYNRIPGSTDKVYLELNNGSHNCATGQDSNYRTTISTYGVSWLKRFLDKDSRYNQFLCGPNHVANARISEFRDTCNF	not clears the plate
unnamed (protein) MRTAKDFARGNPLARLCILLALAVFPALSHAQTVIFQEPFNVGIGSFTADGTVNGGGTGASMHGRIQGYSTITSPAINTTGFTNLQLAWTQMCLNSDAGEACQLWYSVNNITWDLVYSTPFAPFNSPASIALPAAAAGQSQLRLRFVRLANSFEEVYDVDNISLTGTAGGGGTTSGSTSGGTSGGGGTPCQNGPAPSATSVQGDGPFTVGTYVVPNPSGYKAGTIYYPTNTVSGACTKFAGIVTMPGYQGTQNNLSWLGPRLASNGFVVINVDTNTLSDSPDQRGAEILSALNQLVSLSNASGNPISGKVDSAKLGAMGHSMGGGGTLVAARNAMIKAAIPMAPYHNTTTNFPDVHAPTLVVTCQGDPSAPAATYGRPMYNSLTTEKAYLELTTTDGHLCVMTGYGNKAVQSRYMTSWMKRWLDGDTRYTQFLCGTTSGSNGVTTWADTCPY	not clears the plate
unnamed (protein) MNEVEPVNKSFLKKLSIGTGVLLVSMNALSWTPSPAPTPDPTPDPTPCQGDCDFTRGPNPTVSSVESSTGPYSVRTQSIASSVSGFGGGTIHYPTNTSGKMGAIAIAPGFLAPESSIIWWGPRLASHGFVVITIATNSVFDQPSSRGTQIGRALDYVISQSNASNSAISGMVDSTRVGAMGWSMGGGGALRLASGDRLSAAIPLAPWHQGGNSFNQLETPTLIIACENDNVAPVDRHASAFYNAIPSTTDKALLEIDGGAHSCANGDGSNDAVLGKYGISWMKRFIDNDLRYDQFLCGPNHAANSAVSEYRETCDY	not clears the plate
unnamed (protein) MGGSMKLRSTAMRRRFVVLVAVVMLVVAACDWRGPAPTEQSLVAARGTFTVGTLAVPTSAGFGGGTIYYPGNHDGPFGVISISPGFLGNQSSIGEWGPRLASHGFVVITINTTNGFIQPPQRSTEQRQALSYVVAQGGVSSSPIFGIVDGARRGVAGHSMGGGASLISVQSDPSIKVAVPFAPWNSSANFSAVTSAVLIFACQNDSIAPVGSHASPMYNSIPASTDKSYVSVAGGDHFCANNPTGASGTAGKWALSYFKKFIDGDTRYDPWVCGASKPATGPVLNEVRSSCPF	not clears the plate
unnamed (protein) MEISNTRQLAVRSRARSRAETGGRKWTIGLGLLLLAAVAHAQTNPYAKGPDPTSSLLNATRGPFSITSTSVSRFVSGFGGGTIYYPTTSGSYAAIAISPGFTATQSSIAWLGQRIASHGFVAITINTNSVYDQPASRATQLMAALRYLTNSSTSAVRSRVDANRLGVAGHSMGGGGALIAARDNPSLKASVPLTAWSTSKNFSTVQVPTLVVGAENDSVAPVSSHSIPFYTSLSSFLEKAYAELNNASHFAPNSTNTPIGRYSVAWVKRFMDNDTRYSPFLCGAPHQSYATSTVFSEYRSTCPY	not clears the plate
unnamed (protein) MTTIIAKLAIAASAAVLATAAFAQQQGPEQTAAQLEAGKGPFTVATAKIATPSGYGGGTVYYPTNASGKVGLIVVAPGFTETQSAMNMWGPILASNGFAVINIDTKSTLDQPPARATQMMAALKQVSDLSKTTASPYYNKIDVTRQAVMGHSMGGGGTLVAATANPALKAAIPAAPWSLATKNFPTLAVPTMIFACQSDVIAPVSGHADRFWASFNKQLPSAFAEYAGAGHQCPTSQGGADRKLVFSKLGIAWFKRFVDGDTRYTQFITNDSRLSRFLTNGSF	not clears the plate
unnamed (protein) MPKYPFYSQWIVAIGALVFSINASAVTLDEVAATNKLTIKEQSTKIVSTPIASAVAITSPVSTPAVPSNCIADSIITAANLSDTRDKGPFSVAKKAVPRQLANGFGGGTIYYPTNAGGCGLLGGIAVIPGYVSYESSIKWWGPRLASWGFVVITIDTNSIYDDPDSRAAQLSAALDHMLRDNTVGAQIDSTRLGAIGWSMGGGGALQLATKRQTVRAIIPQTPYHDKDYGEMNTPALFITCQNDRIASNKKYSSRFYDKATGAKMKIEIKNGSHFCPSYRFNEILLSKPGIAWMHRYINGDTRFDQFLCSNDNYGNNPRISAYDYKLS	not clears the plate
unnamed (protein) MKTTISPIKGLAIAVAIAMATVAQPALSQTSPPTSASLNATSGPLSVSTASVLLPVGFGGGTIYYPTVAGQYGVIAISPGFTATQSSIAWLGRRIATHGFVVITMDTNTTLDQPDSRATQLMAALRYVLNSSGTAVRSRVDTTRLAVAGHSMGGGGSLIAARDNPTLKASYPMTPWNLSTNFSTVRVPTMIIGADGDTIAPVATHARPFYASLPSTTFKAYGELNNGTHFSPNATSTPIGRYAVAWMKRFVDGDARYSPFLCGAEHTSYATALVFERYNQNCPY	not clears the plate
